Holding throughout (assay): SPR; IgG amine-coupled to CM5 chip (Biacore 3000); GST-ABD or GST at 54, 108, 216 and 432 nM, 10 μl/min for 7 min; 25 °C; PBS running buffer; 1:1 Langmuir model
Assay [1] has as its target Mouse IgG (mouse).
For assay [2], the target named is Rat IgG (rat).
Assay [3] concerns the target Rabbit IgG (rabbit).

For “GST-ABD (recombinant secondary antibody mimic; glutathione-S-transferase fused through a linker to the antibody-binding domain of protein A) (domain or fragment)”, in assay [1], the Ka is 5.9e+07 M⁻¹, the Kd amounted to 16.8 nM, the koff was found to be 0.00107 s⁻¹ and the kon was determined as 63800 M⁻¹ s⁻¹. Besides, in assay [2], the Ka amounted to 2.3e+08 M⁻¹, the Kd turned out to be 4.34 nM, the koff was 0.00022 s⁻¹ and the kon stood at 51800 M⁻¹ s⁻¹. For the same substance, in assay [3], the Ka amounted to 7.6e+08 M⁻¹, the Kd stood at 1.31 nM, the koff was determined as 9e-05 s⁻¹ and the on-rate (kon) was 66600 M⁻¹ s⁻¹.

What is called Kd is the free concentration of one partner at which half of the binding sites on the other are occupied at equilibrium, for simple one-to-one binding. What is called koff is the first-order rate constant of dissociation. Read a low koff as slow dissociation. As a reminder, the kon is the second-order rate constant of association.

The values above are taken from article PMC4827060.
